Measured values: article PMC2396850

Molecular target: various tetraspanins
Assay: co-IP

B1: Tumour-associated antigen L6 (L6-Ag), endogenous (natural protein)
chain: MCYGKCARCIGHSLVGLALLCIAANILLYFPNGETKYASENHLSRFVWFFSGIVGGGLLMLLPAFVFIGLEQDDCCGCCGHENCGKRCAMLSSVLAALIGIAGSGYCVIVAALGLAEGPLCLDSLGQWNYTFASTEGQYLLDTSTWSECTEPKHIVEWNVSLFSILLALGGIEFILCLIQVINGVLGGICGFCCSHQQQYDC
- percent of the total L6-Ag co-immunoprecipitated (% of the total L6-Ag): 10 to 15
